# T1: His6-LctA modified by LctM
# T1 chain: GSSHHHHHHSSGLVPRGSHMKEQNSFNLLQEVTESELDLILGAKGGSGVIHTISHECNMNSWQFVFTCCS
# T2: His6-LctA
# T2 chain: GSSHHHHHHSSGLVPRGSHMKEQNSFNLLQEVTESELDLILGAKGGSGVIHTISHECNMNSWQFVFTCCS
# T3: LctMutA
# T3 chain: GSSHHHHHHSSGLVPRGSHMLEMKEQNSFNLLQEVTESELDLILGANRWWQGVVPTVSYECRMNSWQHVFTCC
# Key:
# [1] = target: T1, His6-LctA modified by LctM
# His6-LctA = target: T2, His6-LctA
# LctMutA = target: T3, LctMutA
Protein,proteolytic cleavage of the leader (MALDI-TOF MS; sensitivity of indicator strain L. lactis 117) [1],proteolytic cleavage of the leader (MALDI-TOF MS) (His6-LctA),removal of the leader peptide (LctMutA),proteolytic cleavage (MALDI-MS) [1]
GST-Lpd (protein) MKIVLQNNEQDCLLACYSMILGYFGRDVAIHELYSGEMIPPDGLSVSYLKNINMKHQVSMHVYKTDKKNSPNKIFYPKMLPVIIQWNDNHFVVVTKIYRKNVTLIDPAIGKVKYNYNDFMKKFSGYIITLSPNSSFTKKKRISEIIFPLK,Both unmodified and modified His-LctA were substrates for GST-Lpd,Both unmodified and modified His-LctA were substrates for GST-Lpd,the protease domain of LctT can remove the leaser peptide and the His-tag,–
Endoproteinase Lys-C from Lysobacter enzymogenes (protein) GVSGSCNIDVVCPEGNGHRDVIRSVAAYSKQGTMWCTGSLVNNSANDKKMYFLTANHCGMTTAAIASSMVVYWNYQNSTCRAPGSSSSGANGDGSLAQSQTGAVVRATNAASDFTLLELNTAANPAYNLFWAGWDRRDQNFAGATAIHHPNVAEKRISHSTVATEISGYNGATGTSHLHVFWQASGGVTEPGSSGSPIYSPEKRVLGQLHGGPSSCSATGADRSDYYGRVFTSWTGGGTSATRLSDWLDAAGTGAQFIDGLDSTGTPPV,–,–,–,cleavage of the amide bond between Lys25 and Gly26 and removal of the leader sequence and the His6-tag

# — US20050164339
